# Laboratory results published in the Human Domainome abundance scans (Beltran et al. 2025).
# ± gives the uncertainty stated by the source.
# B1: Connector enhancer of kinase suppressor of ras 2, residues 9 to 71; numbered along this chain, Q8WXI2 (parent)
# chain: SKWSPSQVVDWMKGLDDCLQQYIKNFEREKISGDQLLRITHQELEDLGVSRIGHQELILEAVD
# B2: SWI/SNF-related matrix-associated actin-dependent regulator of chromatin subfamily B member 1, residues 181 to 248; numbered along this chain, Q12824 (parent)
# chain: SQPEVLVPIRLDMEIDGQKLRDAFTWNMNEKLMTPEMFSEILCDDLDLNPLTFVPAIASAIRQQIESY
# Variants of: B1
# Assay: abundance fitness (aPCA) (normalised: wild type 0, dead -1); higher = more abundant; growth selection in yeast, the domain comes from the species named
# Conditions: Homo sapiens
row,Variant,abundance fitness
1,D17N,-0.075 ± 0.057
2,D16Y,-0.667 ± 0.035
3,D16M,-0.669 ± 0.056
4,D16V,-0.675 ± 0.032
5,E29H,0.003 ± 0.044
6,E29G,-0.04 ± 0.029
7,E29S,-0.043 ± 0.033
8,E29T,-0.139 ± 0.037
9,E29N,-0.143 ± 0.057
10,Q20E,-0.31 ± 0.043
11,Q20C,-0.325 ± 0.042
12,Q20W,-0.133 ± 0.031
13,Q20P,-0.805 ± 0.051
14,Q20S,-0.148 ± 0.024
15,Q20Y,-0.204 ± 0.042
16,Q20A,-0.177 ± 0.028
17,E27T,-0.197 ± 0.033
18,E27M,-0.205 ± 0.058
19,E27L,-0.207 ± 0.03
20,E27V,-0.261 ± 0.027
21,E27F,-0.47 ± 0.16
22,E27S,-0.258 ± 0.03
23,E27A,-0.075 ± 0.029

row,Variant,abundance fitness
1,R51C,0.082 ± 0.034
2,R51G,-0.083 ± 0.026
3,R51E,0.088 ± 0.044
4,Q7E,-0.006 ± 0.033
5,Q7C,-0.574 ± 0.042
6,Q7Y,-0.777 ± 0.068
7,Q7I,-0.748 ± 0.075
8,V49W,-0.866 ± 0.052
9,V49Q,-0.846 ± 0.065
10,V49E,-0.903 ± 0.054
11,V49A,-0.833 ± 0.044
12,V49P,-0.875 ± 0.056
13,G48T,-0.865 ± 0.08
14,G48C,-0.698 ± 0.055
15,G48P,-0.704 ± 0.11
16,I31F,-0.573 ± 0.077
17,I31E,-0.827 ± 0.051
18,I31R,-0.873 ± 0.041
19,I31M,-0.361 ± 0.028
20,I31C,-0.99 ± 0.1
21,L47C,-0.592 ± 0.083
22,L47Q,-0.838 ± 0.073
23,L47V,-0.423 ± 0.025

row,Variant,abundance fitness
1,V8W,-1.05 ± 0.083
2,V8G,-0.851 ± 0.049
3,V8T,-0.523 ± 0.033
4,V8R,-0.872 ± 0.06
5,V8P,-0.773 ± 0.052
6,Q35M,-0.152 ± 0.049
7,Q35N,-0.119 ± 0.12
8,S50Y,-0.05 ± 0.17
9,S50K,0.278 ± 0.29
10,S50P,-0.391 ± 0.088
11,S50A,-0.125 ± 0.15
12,I58F,-0.033 ± 0.085
13,I58S,-0.714 ± 0.065
14,Q21C,-0.022 ± 0.048
15,Q21D,-0.095 ± 0.035
16,Q21Y,-0.459 ± 0.066
17,Q21V,-0.072 ± 0.024
18,K2A,-0.239 ± 0.043
19,K2R,-0.325 ± 0.052
20,K2F,-0.025 ± 0.018
21,I23P,-0.673 ± 0.059
22,I23K,-0.361 ± 0.058
23,I23G,-0.344 ± 0.024

row,Variant,abundance fitness
1,I23F,-0.765 ± 0.092
2,I23W,-0.313 ± 0.033
3,I23Q,-0.378 ± 0.044
4,E56K,0.041 ± 0.037
5,E56H,-0.121 ± 0.051
6,E56Y,-0.333 ± 0.062
7,E56A,-0.138 ± 0.042
8,E56C,-0.176 ± 0.043
9,E56D,-0.011 ± 0.045
10,D10L,-0.256 ± 0.017
11,D10T,-0.18 ± 0.027
12,D10E,0.096 ± 0.029
13,D10R,-0.176 ± 0.031
14,D10N,-0.087 ± 0.036
15,N25I,-0.088 ± 0.083
16,N25C,-0.066 ± 0.03
17,N25W,-0.443 ± 0.03
18,N25A,-0.007 ± 0.033
19,N25P,-0.307 ± 0.033
20,H54S,-0.766 ± 0.039
21,H54V,-0.982 ± 0.05
22,H54N,-0.65 ± 0.036
23,H54I,-1.15 ± 0.14

row,Variant,abundance fitness
1,T40Q,-0.437 ± 0.038
2,T40I,-0.893 ± 0.093
3,T40G,-0.12 ± 0.027
4,T40W,-0.957 ± 0.07
5,T40A,-0.499 ± 0.034
6,T40L,-1.07 ± 0.076
7,K13L,-0.23 ± 0.024
8,K13I,-0.422 ± 0.052
9,K13H,-0.13 ± 0.065
10,K13S,-0.179 ± 0.027
11,K13F,-0.375 ± 0.045
12,K13N,-0.212 ± 0.055
13,G33D,-0.906 ± 0.067
14,G33K,-0.462 ± 0.07
15,G33Q,-0.559 ± 0.051
16,G33C,-0.833 ± 0.07
17,V62G,-0.802 ± 0.046
18,V62C,-0.411 ± 0.047
19,V62Q,-0.789 ± 0.089
20,V62Y,-1.02 ± 0.11
21,V62E,-0.63 ± 0.11
22,V62D,-0.822 ± 0.088

# Variants of: B2
# Assay: as above
# Conditions: Homo sapiens
row,Variant,abundance fitness
1,Y68V,-0.373 ± 0.11
2,Y68I,-0.541 ± 0.14
3,Y68L,-0.536 ± 0.15
4,Y68C,-0.643 ± 0.21
5,Y68P,-0.473 ± 0.13
6,Y68S,-0.427 ± 0.069
7,Y68D,-0.521 ± 0.12
8,Y68K,-0.47 ± 0.17
9,Y68M,-0.641 ± 0.29
10,Y68T,-0.444 ± 0.15
11,Y68G,-0.661 ± 0.13
12,Y68H,-0.093 ± 0.092
13,Y68A,-0.127 ± 0.051
14,Y68N,-0.384 ± 0.22
15,Y68W,0.165 ± 0.073
16,Y68Q,-0.185 ± 0.086
17,Y68F,-0.183 ± 0.18
18,S67M,-0.103 ± 0.13
19,S67R,0.039 ± 0.035
20,S67G,-0.012 ± 0.039
21,S67N,0.082 ± 0.063
22,S67T,-0.101 ± 0.071
23,S67P,-0.055 ± 0.045
24,S67V,-0.098 ± 0.058
25,S67C,0.003 ± 0.052
26,S67Y,-0.179 ± 0.12
27,S67H,-0.089 ± 0.057

row,Variant,abundance fitness
1,S67A,0.046 ± 0.072
2,S67K,-0.2 ± 0.14
3,S67F,-0.06 ± 0.066
4,S67D,-0.055 ± 0.12
5,S67I,-0.078 ± 0.28
6,S67E,-0.011 ± 0.074
7,S67W,-0.234 ± 0.083
8,E66C,-0.385 ± 0.098
9,E66H,-0.45 ± 0.3
10,E66G,-0.316 ± 0.075
11,E66M,-0.215 ± 0.12
12,E66T,-0.169 ± 0.073
13,E66N,-0.227 ± 0.11
14,E66L,-0.229 ± 0.05
15,E66Y,-0.09 ± 0.068
16,E66K,-0.106 ± 0.059
17,E66S,-0.06 ± 0.039
18,E66P,-0.919 ± 0.44
19,E66D,-0.073 ± 0.045
20,E66V,-0.142 ± 0.099
21,E66W,-0.313 ± 0.072
22,E66Q,-0.432 ± 0.18
23,E66I,-0.276 ± 0.13
24,E66A,0.096 ± 0.049
25,I65W,-0.817 ± 0.16
26,I65V,-0.232 ± 0.11
